Molecular target: PKM2 in SW480 cells (human (endogenous in SW480)) (UniProt P14618)
Assay: cross-linking; PKM2 cross-linked in SW480 cells expressing MYG1 variants, following ref. 37; SDS-PAGE and western blot

PKM2 in SW480 cells, P14618 1-531 (enzyme; other documents disagree on this pair), sequence (P14618 whole entry): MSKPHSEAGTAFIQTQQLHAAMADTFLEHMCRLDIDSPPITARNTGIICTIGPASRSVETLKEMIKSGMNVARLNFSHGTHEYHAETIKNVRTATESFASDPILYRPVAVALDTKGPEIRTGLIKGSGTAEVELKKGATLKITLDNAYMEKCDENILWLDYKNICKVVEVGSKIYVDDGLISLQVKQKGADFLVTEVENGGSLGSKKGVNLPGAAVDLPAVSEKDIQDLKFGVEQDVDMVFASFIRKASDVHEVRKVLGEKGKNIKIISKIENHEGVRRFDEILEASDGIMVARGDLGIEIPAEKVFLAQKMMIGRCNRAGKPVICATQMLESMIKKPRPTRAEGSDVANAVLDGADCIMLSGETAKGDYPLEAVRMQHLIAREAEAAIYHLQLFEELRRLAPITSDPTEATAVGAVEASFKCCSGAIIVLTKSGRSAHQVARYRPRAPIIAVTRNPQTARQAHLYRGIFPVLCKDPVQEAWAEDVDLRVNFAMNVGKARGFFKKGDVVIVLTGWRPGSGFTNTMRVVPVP

stoichiometry N: 2
Substance: PKM2 in SW480 cells, P14618 1-531 (enzyme; other documents disagree on this pair)

Reference: publication PMC11167044
